± gives the uncertainty stated by the source.
Assay: protein stability index of a GFP-peptide fusion (yeast GPS) (PSI 1-4); higher = more stable; sorted into four equal gates, so the index is relative within each strain
Method in brief: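 Tiled 17-residue yeast protein peptides were fused downstream of GFP in a plasmid that also expresses Cherry, and the pooled library was carried in yeast. Mid-log cultures in leucine-free medium were sorted into four equal gates by GFP/Cherry fluorescence ratio, and plasmids from each gate were PCR-amplified and Illumina-sequenced, with reads assigned to strains by barcodes. The protein stability index for each peptide was each gate's read frequency times its gate number, summed.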

Row | Sequence | protein stability index (doa10∆) | protein stability index (pdr5∆) | protein stability index (san1∆) | protein stability index (ubr1∆)
1 | NNDDNGNNNNNNSGNDN [MED2] | 2.93 ± 0.043 | 2.99 ± 0.04 | 3.01 ± 0.034 | 3.05 ± 0.041
2 | IIDVGTHHTDIIPIVDY [ARP9] | 2.41 ± 0.088 | 2.48 ± 0.056 | 2.5 ± 0.056 | 2.59 ± 0.036
3 | GVRPFGVSLLIAGHDEF [PRE8] | 2.46 ± 0.1 | 1.95 ± 0.096 | 1.94 ± 0.2 | 1.93 ± 0.075
4 | GEIIDISAFTQFLRLIF [ARP9] | 2.45 ± 0.08 | 2.23 ± 0.075 | 2.59 ± 0.11 | 2.94 ± 0.065
5 | TQEQFVKRRRDMLEHIN [SRB4] |  | 2.06 ± 0.27 |  | 1.26 ± 0.089
6 | TKNNTQASGITAGAAAN [SSN3] | 1.86 ± 0.094 | 2.08 ± 0.051 | 2.07 ± 0.11 | 1.97 ± 0.062
7 | VNLDNTAVGKAAVVKTS [RPT5] | 3.16 ± 0.064 | 3.12 ± 0.057 | 3.28 ± 0.041 | 3.05 ± 0.039
8 | DKLDDDGLIAPGVRVSG [RPB2] | 1.65 ± 0.19 | 2.23 ± 0.1 | 2.48 ± 0.27 | 1.71 ± 0.11
9 | VNEENDSYIALYEKDIV [RET1] | 2.6 ± 0.064 | 2.56 ± 0.076 | 2.69 ± 0.061 | 2.68 ± 0.07
10 | MPPKEDWEKYKAPLEDD [RPT1] | 3.21 ± 0.12 | 3.29 ± 0.21 | 3.38 ± 0.069 | 3.27 ± 0.19
11 | YSILGDRFKYRSVDRAG [POP4] |  | 2.93 ± 0.23 | 3.45 ± 0.13 | 
12 | SFNVKENQPFHGIKDIP [AAR2] | 2.73 ± 0.16 | 3.17 ± 0.19 | 2.98 ± 0.11 | 2.34 ± 0.21
13 | LTKAAIVQIDATPFRQW [RPS8A] | 2.132 ± 0.016 | 2.453 ± 0.017 | 2.347 ± 0.021 | 2.362 ± 0.014
14 | MAKLNECPLDPGGYFIV [RET1] | 2.87 ± 0.11 | 3.28 ± 0.091 | 2.83 ± 0.086 | 3.23 ± 0.099
15 | NIQKKQPAKEKGVTEKD [RRP6] | 3.12 ± 0.1 | 3.17 ± 0.045 | 3.11 ± 0.051 | 3.28 ± 0.047
16 | TTQDQCKLTLDINVELF [RPB8] | 2.97 ± 0.054 | 2.96 ± 0.07 | 2.93 ± 0.037 | 3.3 ± 0.053
17 | DTLKENATEVQKESDAK [ITC1] | 2.87 ± 0.11 | 2.94 ± 0.12 | 2.85 ± 0.086 | 3.16 ± 0.26
18 | AAASESDVAKQLASFGY [RPL16B] | 2.67 ± 0.032 | 2.62 ± 0.028 | 2.28 ± 0.037 | 2.356 ± 0.019
19 | SKNPLSLTEATKTNVDN [YLR335W/NUP2] | 3.01 ± 0.065 | 3.01 ± 0.069 | 3.28 ± 0.11 | 3.31 ± 0.092
20 | GAQIVSKQIFTHPKDTF [ARP9] | 2.23 ± 0.069 | 1.51 ± 0.051 | 2.04 ± 0.067 | 1.68 ± 0.033
21 | FIRKYINQKALRKIQAL [GAL11] | 2.38 ± 0.25 | 1.49 ± 0.22 | 1.79 ± 0.23 | 
22 | QGKPYISLPKGKGIKLS [RPS4A] | 3.29 ± 0.07 | 3.33 ± 0.081 | 2.84 ± 0.06 | 2.45 ± 0.073
23 | CIVDFTNPKLKSEFDDL [YMR129W/POM152] | 1.81 ± 0.067 | 2.1 ± 0.074 | 1.82 ± 0.13 | 1.69 ± 0.052
24 | YLKFIPLKRAIWLIKCC [SRB8] | 2.51 ± 0.095 | 1.86 ± 0.069 | 2.19 ± 0.16 | 2.16 ± 0.057
25 | KIIALQPNEISFKYLSN [RGR1] | 2.43 ± 0.12 | 2.38 ± 0.12 |  | 2.48 ± 0.098
26 | QFCAFDSSSNTYRSRAQ [SIN4] | 2.82 ± 0.075 | 2.37 ± 0.08 | 2.81 ± 0.05 | 2.39 ± 0.057
27 | RSNTGALMRCSFEETVE [RPO21] | 3 ± 0.074 | 3.02 ± 0.077 | 3.06 ± 0.061 | 3.01 ± 0.067

Row | Sequence | protein stability index (doa10∆) | protein stability index (pdr5∆) | protein stability index (san1∆) | protein stability index (ubr1∆)
28 | RKHPGGRGMAGGQHHHR [RPL28] | 2.94 ± 0.14 | 2.6 ± 0.26 | 3.03 ± 0.1 | 3.18 ± 0.16
29 | LVRNGPNEHPGAKYVIR [RPO21] | 2.91 ± 0.095 | 2.95 ± 0.1 | 2.76 ± 0.14 | 2.8 ± 0.084
30 | ISKNPSNGIFYGPSFTK [SIR2] | 2.94 ± 0.071 | 3.03 ± 0.054 | 2.76 ± 0.059 | 3.15 ± 0.039
31 | QWNKLTSFDIKREGRNE [POP6] | 3.31 ± 0.3 |  |  | 
32 | LKKFLQEKMDPNNSRDD [IRR1] | 3.11 ± 0.081 | 3.12 ± 0.068 | 3.19 ± 0.064 | 3.09 ± 0.07
33 | QNTIDDTEMKMKSLLTE [YIL149C/MLP2] | 3.25 ± 0.066 | 3.39 ± 0.054 | 3.17 ± 0.067 | 3.19 ± 0.05
34 | PCNNRGKHSIGLIWYLL [RPS0A] | 2.56 ± 0.058 | 2.37 ± 0.054 | 2.49 ± 0.058 | 2.37 ± 0.044
35 | KKTATEPKQKANAVQNN [SRP21] | 3.06 ± 0.086 | 3.19 ± 0.082 |  | 3.24 ± 0.12
36 | NTSLPPSILEDSLENNE [FAS1] | 2.89 ± 0.11 | 2.98 ± 0.11 | 3.11 ± 0.095 | 2.81 ± 0.079
37 | RLAAPHHWLLDKLSGCY [RPS4A] | 2.31 ± 0.23 | 2.2 ± 0.1 | 2.26 ± 0.14 | 2.35 ± 0.15
38 | RKDLRDKLICSIDPPGC [DIS3] | 2.96 ± 0.066 | 2.91 ± 0.047 | 2.67 ± 0.055 | 3.03 ± 0.051
39 | NEVSLAIKKSSMKMELL [SMC2] | 2.69 ± 0.071 | 2.49 ± 0.082 | 3.34 ± 0.12 | 2.21 ± 0.075
40 | VQGELKPTVILKLLKEN [FAS1] | 2.36 ± 0.17 | 2.53 ± 0.14 | 2.75 ± 0.19 | 2.99 ± 0.28
41 | ILEFITAAQVANVELTP [RPC34] | 2.68 ± 0.12 | 2.13 ± 0.08 | 2.27 ± 0.095 | 1.53 ± 0.095
42 | SCEVEEIGLLGGRYVYP [SNU114] | 3.27 ± 0.092 | 3.04 ± 0.066 | 2.85 ± 0.065 | 2.8 ± 0.06
43 | NEYYPMCEQALSALFTI [YCS4] | 2.2 ± 0.062 | 2.65 ± 0.088 | 2.47 ± 0.077 | 2.39 ± 0.045
44 | VKNVKNSDLEFNTFWDE [ARP9] | 3.08 ± 0.088 | 3.13 ± 0.14 | 3.53 ± 0.11 | 3.46 ± 0.084
45 | MRQQSKELQQLQKQILT [SMC1] | 3.32 ± 0.13 | 3.05 ± 0.074 | 3.29 ± 0.039 | 3.17 ± 0.049
46 | NILKILSSLILKIFQEQ [SRB8] | 2.17 ± 0.047 | 1.99 ± 0.05 | 2.48 ± 0.1 | 2.02 ± 0.037
47 | LKESIKNSTSSMTAVPK [RPN1] | 3.02 ± 0.096 | 3.31 ± 0.1 | 3.14 ± 0.1 | 3.2 ± 0.084
48 | EQERKELEKYNELERNR [SMC3] | 3.14 ± 0.14 | 3.05 ± 0.18 | 3.2 ± 0.11 | 3.24 ± 0.091
49 | QNYLKTYNEDIPVEILV [PRE9] | 2.79 ± 0.066 | 2.05 ± 0.084 | 2.76 ± 0.091 | 2.38 ± 0.071
50 | IYRYDEMSNKVLKVDKR [BRR2] | 2.97 ± 0.042 | 3.09 ± 0.051 | 2.96 ± 0.038 | 2.84 ± 0.047
51 | LYEIILAANYLNIKPLL [SKP1] | 1.51 ± 0.046 | 1.33 ± 0.045 | 1.28 ± 0.11 | 1.46 ± 0.045
52 | QIPTPNNTVDPGFDEFQ [CSI1] | 3.17 ± 0.057 | 2.98 ± 0.045 | 3.04 ± 0.043 | 2.89 ± 0.039
53 | ARLEPGTAIGAIGAQSI [RPO31] | 2.76 ± 0.097 | 1.82 ± 0.079 | 1.49 ± 0.14 | 2.39 ± 0.053
54 | RRLLNLYNDNNKNNNNR [SWI1] | 3.11 ± 0.12 | 2.86 ± 0.089 | 2.22 ± 0.16 | 2.99 ± 0.058
